Reference: US20190077860A1 (EISAI R AND D MANAGEMENT, published 2019)
Where a chain is given by its changes, count along the chain named.

T1: human EphB6 extracellular region-SEAP-His protein (human, UniProt O15197 32-594)
T1 construct: extracellular domain; also called hEphB6-SEAP-His
T1 sequence (looked up): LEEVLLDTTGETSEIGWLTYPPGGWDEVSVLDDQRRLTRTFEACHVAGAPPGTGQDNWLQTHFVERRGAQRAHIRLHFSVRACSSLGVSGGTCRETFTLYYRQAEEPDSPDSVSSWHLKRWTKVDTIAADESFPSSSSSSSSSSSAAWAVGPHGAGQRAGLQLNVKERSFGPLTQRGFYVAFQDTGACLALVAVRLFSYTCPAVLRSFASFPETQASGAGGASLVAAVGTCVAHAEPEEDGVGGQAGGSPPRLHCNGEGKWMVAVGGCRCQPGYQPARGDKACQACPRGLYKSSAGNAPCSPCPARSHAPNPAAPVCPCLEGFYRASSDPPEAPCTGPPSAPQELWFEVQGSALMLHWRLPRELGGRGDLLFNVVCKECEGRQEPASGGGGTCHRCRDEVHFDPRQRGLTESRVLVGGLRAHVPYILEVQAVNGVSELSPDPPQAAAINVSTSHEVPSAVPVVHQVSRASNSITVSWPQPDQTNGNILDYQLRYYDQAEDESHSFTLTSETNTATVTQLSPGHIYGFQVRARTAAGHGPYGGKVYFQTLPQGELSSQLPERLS

T2: human EphB4 extracellular region-SEAP-His protein (human, UniProt P54760 16-539)
T2 construct: extracellular domain; also called hEphB4-SEAP-His
T2 sequence (looked up): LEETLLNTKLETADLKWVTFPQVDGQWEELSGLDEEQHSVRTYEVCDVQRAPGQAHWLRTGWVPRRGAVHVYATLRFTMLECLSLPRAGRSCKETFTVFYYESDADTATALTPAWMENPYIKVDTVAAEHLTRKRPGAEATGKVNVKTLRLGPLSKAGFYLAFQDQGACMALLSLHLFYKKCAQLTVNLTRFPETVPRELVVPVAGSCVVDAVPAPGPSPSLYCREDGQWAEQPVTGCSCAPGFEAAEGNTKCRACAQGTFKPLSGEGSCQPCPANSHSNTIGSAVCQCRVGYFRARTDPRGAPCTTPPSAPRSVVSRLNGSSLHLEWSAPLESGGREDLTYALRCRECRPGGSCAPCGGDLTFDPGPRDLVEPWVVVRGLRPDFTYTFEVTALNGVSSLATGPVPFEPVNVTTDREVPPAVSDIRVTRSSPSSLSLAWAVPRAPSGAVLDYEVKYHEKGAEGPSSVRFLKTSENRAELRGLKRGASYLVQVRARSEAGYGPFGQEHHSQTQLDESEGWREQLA

T3: human EphA7 extracellular region-SEAP-His protein (human, UniProt Q15375 28-555)
T3 construct: extracellular domain; also called hEphA7-SEAP-His
T3 sequence (looked up): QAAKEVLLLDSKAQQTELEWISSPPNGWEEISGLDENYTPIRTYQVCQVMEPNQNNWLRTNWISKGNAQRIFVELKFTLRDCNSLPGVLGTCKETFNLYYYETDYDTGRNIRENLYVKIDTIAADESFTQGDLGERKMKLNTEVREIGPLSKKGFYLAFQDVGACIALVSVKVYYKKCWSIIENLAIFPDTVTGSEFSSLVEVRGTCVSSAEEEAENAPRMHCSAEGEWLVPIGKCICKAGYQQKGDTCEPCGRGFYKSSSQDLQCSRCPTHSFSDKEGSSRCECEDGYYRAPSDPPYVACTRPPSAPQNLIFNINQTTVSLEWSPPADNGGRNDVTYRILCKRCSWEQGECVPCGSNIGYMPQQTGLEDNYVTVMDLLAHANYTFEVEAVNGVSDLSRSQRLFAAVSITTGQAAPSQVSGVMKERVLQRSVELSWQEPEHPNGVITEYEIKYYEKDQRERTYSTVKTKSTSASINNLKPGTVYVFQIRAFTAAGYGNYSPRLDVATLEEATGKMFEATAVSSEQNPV

T4: human EphA8 extracellular region-SEAP-His protein (human, UniProt P29322 28-542)
T4 construct: extracellular domain; also called hEphA8-SEAP-His
T4 sequence (looked up): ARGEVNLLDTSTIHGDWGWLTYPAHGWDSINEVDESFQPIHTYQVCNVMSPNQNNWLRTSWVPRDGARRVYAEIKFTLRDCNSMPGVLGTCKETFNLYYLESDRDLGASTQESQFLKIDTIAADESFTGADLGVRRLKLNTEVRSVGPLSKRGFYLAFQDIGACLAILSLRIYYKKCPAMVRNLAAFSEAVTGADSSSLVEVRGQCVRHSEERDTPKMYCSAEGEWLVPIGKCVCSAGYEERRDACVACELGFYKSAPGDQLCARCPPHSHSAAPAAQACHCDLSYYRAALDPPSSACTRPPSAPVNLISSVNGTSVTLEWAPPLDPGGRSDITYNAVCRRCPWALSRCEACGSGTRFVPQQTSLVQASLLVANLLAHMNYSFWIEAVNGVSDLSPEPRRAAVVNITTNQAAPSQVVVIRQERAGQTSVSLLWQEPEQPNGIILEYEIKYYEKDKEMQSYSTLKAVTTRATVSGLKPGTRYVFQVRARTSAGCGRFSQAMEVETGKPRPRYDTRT

B1: humanized antibody No. 77 (antibody, human IgG1, kappa)
heavy: QVQLVQSGSELKKPGASVKVSCKASGYTFTDYSMHWVRQAPGQGLEWMGWINTETGEPTYADDFKGRFVFSLDTSVSTAYLQISSLKAEDTAVYYCARIPLYYYGSRYWYFDVWGQGTTVTVSSASTKGPSVFPLAPSSKSTSGGTAALGCLVKDYFPEPVTVSWNSGALTSGVHTFPAVLQSSGLYSLSSVVTVPSSSLGTQTYICNVNHKPSNTKVDKRVEPKSCDKTHTCPPCPAPPAAAPSVFLFPPKPKDTLMISRTPEVTCVVVDVSHEDPEVQFNWYVDGVEVHNAKTKPREEQFNSTFRVVSVLTVVHQDWLNGKEYKCKVSNKGLPAPIEKTISKTKGQPREPQVYTLPPSREEMTKNQVSLTCLVKGFYPSDIAVEWESNGQPENNYKTTPPMLDSDGSFFLYSKLTVDKSRWQQGNVFSCSVMHEALHNHYTQKSLSLSPG
light: DIQMTQSPSSLSASVGDRVTITCRASENIYRNLAWYQQKPGKAPKLLVYAATNLADGVPSRFSGSGSGTDYTLTISSLQPEDFATYYCQHFWGTPWTFGQGTKVEIKRTVAAPSVFIFPPSDEQLKSGTASVVCLLNNFYPREAKVQWKVDNALQSGNSQESVTEQDSKDSTYSLSSTLTLSKADYEKHKVYACEVTHQGLSSPVTKSFNRGEC
notes: human Ig kappa; also called L1-4/HK1
B2: humanized antibody No. 88 (antibody, human IgG1, kappa)
heavy: B1 heavy with E46K, D62Q, D63G, K65T
light: B1 light with K45Q, V48L
notes: human Ig kappa; also called L1-6/HA2
B3: humanized antibody No. 89 (antibody, human IgG1, kappa)
heavy: B1 heavy with V2I, E46K, D62Q, D63G, K65T
light: B1 light with K45Q, V48L
notes: human Ig kappa; also called L1-6/HA4
B4: humanized antibody No. 91 (antibody, human IgG1, kappa)
heavy: B1 heavy with E46K
light: B1 light with K45Q, V48L
notes: human Ig kappa; also called L1-6/HK2
B5: humanized antibody No. 90 (antibody, human IgG1, kappa)
heavy: B1 heavy
light: B1 light with K45Q, V48L
notes: human Ig kappa; also called L1-6/HK1
B6: humanized antibody No. 87 (antibody, human IgG1, kappa)
heavy: B1 heavy with D62Q, D63G, K65T
light: B1 light with K45Q, V48L
notes: human Ig kappa; also called L1-6/HA1
B7: humanized antibody No. 86 (antibody, human IgG1, kappa)
heavy: B1 heavy with V2I, E46K
light: B1 light with V48L, P80S
notes: human Ig kappa; also called L1-5/HK4
B8: humanized antibody No. 85 (antibody, human IgG1, kappa)
heavy: B1 heavy with E46K
light: B1 light with V48L, P80S
notes: human Ig kappa; also called L1-5/HK2
B9: humanized antibody No. 84 (antibody, human IgG1, kappa)
heavy: B1 heavy
light: B1 light with V48L, P80S
notes: human Ig kappa; also called L1-5/HK1
B10: humanized antibody No. 82 (antibody, human IgG1, kappa)
heavy: B1 heavy with E46K, D62Q, D63G, K65T
light: B1 light with V48L, P80S
notes: human Ig kappa; also called L1-5/HA2
B11: humanized antibody No. 81 (antibody, human IgG1, kappa)
heavy: B1 heavy with D62Q, D63G, K65T
light: B1 light with V48L, P80S
notes: human Ig kappa; also called L1-5/HA1
B12: humanized antibody No. 78 (antibody, human IgG1, kappa)
heavy: B1 heavy with E46K
light: B1 light
notes: human Ig kappa; also called L1-4/HK2
B13: humanized antibody No. 83 (antibody, human IgG1, kappa)
heavy: B1 heavy with V2I, E46K, D62Q, D63G, K65T
light: B1 light with V48L, P80S
notes: human Ig kappa; also called L1-5/HA4

Target: T1, human EphB6 extracellular …
Assay: ELISA

A450 as % of hEphA4-SEAP-His | Binder
4.5% | B1
6.1% | B2
4.8% | B3
6.3% | B4
5.2% | B5
5.3% | B6
5.7% | B7
5.2% | B8
4.9% | B9
5.5% | B10
5% | B11
5.2% | B12
5.8% | B13

Target: T5, human EphA2 extracellular region-SEAP-His protein (human, UniProt P29317 24-537)
T5 construct: extracellular domain; also called hEphA2-SEAP-His
T5 sequence (P29317 24-537): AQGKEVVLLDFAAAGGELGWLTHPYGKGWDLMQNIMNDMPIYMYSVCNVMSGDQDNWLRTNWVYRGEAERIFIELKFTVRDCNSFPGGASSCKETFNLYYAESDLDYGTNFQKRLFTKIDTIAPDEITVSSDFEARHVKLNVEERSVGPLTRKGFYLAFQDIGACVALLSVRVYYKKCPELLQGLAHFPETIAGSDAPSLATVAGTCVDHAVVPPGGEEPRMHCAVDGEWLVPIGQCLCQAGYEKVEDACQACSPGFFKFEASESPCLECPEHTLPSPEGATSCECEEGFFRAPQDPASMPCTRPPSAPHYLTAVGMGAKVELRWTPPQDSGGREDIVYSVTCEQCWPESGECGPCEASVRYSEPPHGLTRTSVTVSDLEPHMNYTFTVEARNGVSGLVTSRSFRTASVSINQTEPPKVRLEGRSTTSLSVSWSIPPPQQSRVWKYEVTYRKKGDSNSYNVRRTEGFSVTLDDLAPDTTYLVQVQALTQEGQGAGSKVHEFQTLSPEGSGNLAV
Assay: ELISA

A450 as % of hEphA4-SEAP-His | Binder
4.5% | B1
5.8% | B2
5.6% | B3
6.1% | B4
5.2% | B5
5.4% | B6
5.7% | B7
5.1% | B8
4.9% | B9
5.4% | B10
4.8% | B11
4.9% | B12
5.8% | B13

Target: T2, human EphB4 extracellular …
Assay: ELISA

A450 as % of hEphA4-SEAP-His | Binder
4.5% | B1
6.1% | B2
5.8% | B3
6.2% | B4
5% | B5
5.5% | B6
5.8% | B7
5.2% | B8
5.4% | B9
5.7% | B10
5% | B11
5.1% | B12
5.7% | B13

Target: T3, human EphA7 extracellular …
Assay: ELISA

A450 as % of hEphA4-SEAP-His | Binder
4.3% | B1
6% | B2
5.4% | B3
5.6% | B4
4.9% | B5
5.3% | B6
5.6% | B7
4.8% | B8
4.8% | B9
5.4% | B10
5.2% | B11
5% | B12
5.5% | B13

Target: T4, human EphA8 extracellular …
Assay: ELISA

A450 as % of hEphA4-SEAP-His | Binder
4.8% | B1
6.2% | B2
5.7% | B3
6.2% | B4
5.4% | B5
5.7% | B6
5.7% | B7
5.5% | B8
5.3% | B9
5.8% | B10
5.2% | B11
5.4% | B12
6% | B13

Target: T6, human EphA5 extracellular region-SEAP-His protein (human, UniProt P54756 25-573)
T6 construct: extracellular domain; also called hEphA5-SEAP-His
T6 sequence (P54756 25-573): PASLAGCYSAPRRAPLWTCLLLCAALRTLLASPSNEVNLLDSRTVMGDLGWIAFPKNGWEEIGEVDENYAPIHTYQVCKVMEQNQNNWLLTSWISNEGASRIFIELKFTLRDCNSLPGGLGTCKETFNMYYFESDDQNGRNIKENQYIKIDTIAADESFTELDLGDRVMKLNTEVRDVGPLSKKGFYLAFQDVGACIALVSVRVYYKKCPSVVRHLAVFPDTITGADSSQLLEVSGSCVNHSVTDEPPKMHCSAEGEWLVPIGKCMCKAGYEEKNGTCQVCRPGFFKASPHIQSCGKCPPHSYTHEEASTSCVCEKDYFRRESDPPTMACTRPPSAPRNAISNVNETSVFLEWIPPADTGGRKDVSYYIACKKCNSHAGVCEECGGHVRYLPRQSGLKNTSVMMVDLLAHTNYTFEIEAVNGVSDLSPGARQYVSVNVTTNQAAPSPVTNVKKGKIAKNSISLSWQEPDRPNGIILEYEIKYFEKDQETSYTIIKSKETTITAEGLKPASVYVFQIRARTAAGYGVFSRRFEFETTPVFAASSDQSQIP
Assay: ELISA

A450 as % of hEphA4-SEAP-His | Binder
4.4% | B1
5.9% | B2
5.8% | B3
6.4% | B4
5.1% | B5
5.4% | B6
5.7% | B7
5% | B8
5% | B9
6.5% | B10
4.9% | B11
5.1% | B12
5.8% | B13
